According to US20250026814A1:
“And” between values parts separate entries of the source, which are not always exact repeats. Equal values may be shown once.

Biological target: spike BA.1 antigens
Experiment: ELISA (AUC)

B1: S626-161 (antibody, V domains shown)
VH: QLQLQESGPGLVKPSETLSLTCTVSGGSISSNNYYWGWIRQPPGKGLEWIGSIYYSGSTYYNPSLKSRVTMSVDTSKNQFSLKLSSVTAADTAVYHCARQGPNYYDRSGYYYVGPFDIWGQGTMVTVSS
VL: QSVLTQPPSVSAAPGQKVTISCSGSSSNIGNNSVSWYQHLPGTAPKLLIYENNERPSGIPDRFSGSKSGTSATLGITGLQTGDEADYYCETWDRSLSASFGTGTKVTVL
- fold reduced binding: 1.7 fold and 3.9 fold
